In experiment [1] the target is CMP-Ang1 fusion protein (encoded by mRNA-59) (human). The experiment in a line: non-reducing PAGE with immunoblot; concentrated serum-free supernatant of mRNA-transfected HeLa cells, non-reducing PAGE, Western blot with Ang1-specific antibody. For orientation: In western blotting, separated proteins are transferred to a membrane and probed.
For experiment [2], the target named is COMP-Ang1 fusion protein (encoded by mRNA-76), secreted by HeLa cells (not stated ('humanized' fusion protein) | human). The description is as above.

On to “CMP-Ang1 fusion protein (encoded by mRNA-59) (ligand)”, for which the stoichiometry N in experiment [1] worked out at 2.

In the case of “COMP-Ang1 fusion protein (encoded by mRNA-76), secreted by HeLa cells (ligand)”, the stoichiometry N in experiment [2] was determined as 5.

What is called stoichiometry N is the number of molecules, sites or subunits per partner or assembly.

The record behind these values is PMC10682670.
